Holding throughout (experiment): shotgun alanine scan of phage-displayed BR3; F against wild type
In assay [1] the target is human BR3 displayed on phage, R30 alanine-scan mutant (human) (UniProt Q96RJ3).
Assay [2] deals with human BR3 displayed on phage, G36 alanine-scan mutant (human) (UniProt Q96RJ3).
Assay [3] deals with human BR3 displayed on phage, mutated at A22 in the alanine scan (human) (UniProt Q96RJ3).

B1: V3-1m (antibody, mouse IgG2a, V domains shown)
VH: EVQLVESGGGLVQPGGSLRLSCAASGFTISSNSIHWVRQAPGKGLEWVAWITPSDGNTDYADSVKGRFTISADTSKNTAYLQMNSLRAEDTAVYYCARRVCYNRLGVCAGGMDYWGQGTLVTVSS
VL: DIQMTQSPSSLSASVGDRVTITCRASQDVSTAVAWYQQKPGKAPKLLIYSASFLYSGVPSRFSGSGSGTDFTLTISSLQPEDFATYYCQQSRITPPTFGQGTKVEIKR
As to B1, the F value in assay [1] is 20.

B2: murine monoclonal antibody 2.1 (antibody, V domains shown)
VH: EVQLQESGPSLVKPSQTLSLTCSVTGDSITRGYWNWIRKFPGNKLEFMGYINYSGTTYYNPSLKSRISITRDTSKNQYYLQLNSVTTEDTATYYCATPHTYGAMDYWGQGTTLTVSA
VL: DIVLTQSPVSLAVSLGQRATISCRASESVDDYGISFMHWYQQKPGQPPKLLIYRASDLESGIPARFSGSGSGTDFTLTINPVETDDVAIYYCQQTSKDPWTFGGGT
B2: the F value in assay [2] stood at 14.

B3: murine monoclonal antibody 11G9 (antibody, V domains shown)
VH: DVQLQESGPSLVKPSQTLSLTCSVTGDSITSGYWNWIRKFPGNKLEYMGYISYSGSTYYNPSLKSRISITRDTSKNQFYLQLLSVTTEDTATYYCAGLDGLYWYFDVWGAGTLVTVSS
VL: DIVMTQTPLSLPVSLGDQASISCRSSQSLVHSNGNTYLHWYLQKPGQSPKLLIYKVSNRFSGVPDRFSGSGSGTDFTLKISRVEAEDLGVYFCSQSTHVPPFTFGSGT
Regarding B3, the F value in assay [3] was 45.
